Among the data in US20240368243A1 are EC50 (mel624), IFN-γ ELISPOT, activation of redirected T cells, Kd and t1/2 values, retold here.

Where a chain is given by its changes, count along the chain named.

Broadly, the Kd is the constant that tells how readily two partners part at equilibrium. A low value points to higher affinity.

B1: ImmTAC molecule comprising a79 (SEQ ID NO: 7) and b64 (SEQ ID NO: 12) (TCR, part only; not given: anti-CD3 scFv, linker, TCR constants, part only)
TCR alpha, part: GDAKTTQPNSMESNEEEPVHLPCNHSTISGTDYIHWYRQLPSQGPEYVIHGLTSNVNNRMASLAIAEDRKSSTLILHRATLRDAAVYYCILILGHSRLGNYIATFGKGTKLSVIP
TCR beta, part: DGGITQSPKYLFRKEGQNVTLSCEQNLNHDAMYWYRQDPGQGLRLIYYSQIMNDEQKGDIAEGYSVSREKKESFPLTVTSAQKNPTAFYLCASSWWTGGSAPIRFGPGTRLTVT
B2: ImmTAC molecule comprising a79 (SEQ ID NO: 7) and b63 (SEQ ID NO: 22) (TCR, part only; not given: anti-CD3 scFv, linker, TCR constants, part only)
TCR alpha, part: B1 TCR alpha, part
TCR beta, part: B1 TCR beta, part with M52V, N53G
B3: ImmTAC molecule comprising a28 (SEQ ID NO: 6) and b60 (SEQ ID NO: 19) (TCR, part only; not given: anti-CD3 scFv, linker, TCR constants, part only)
TCR alpha, part: B1 TCR alpha, part with L98A
TCR beta, part: B1 TCR beta, part with N53G, S100A, A101S, P102E, R104S
B4: ImmTAC molecule comprising a79 (SEQ ID NO: 7) and b58 (SEQ ID NO: 21) (TCR, part only; not given: anti-CD3 scFv, linker, TCR constants, part only)
TCR alpha, part: B1 TCR alpha, part
TCR beta, part: B1 TCR beta, part with N53G, A101S, R104S
B5: ImmTAC molecule comprising a28 (SEQ ID NO: 6) and b58 (SEQ ID NO: 21) (TCR, part only; not given: anti-CD3 scFv, linker, TCR constants, part only)
TCR alpha, part: B1 TCR alpha, part with L98A
TCR beta, part: B1 TCR beta, part with N53G, A101S, R104S
B6: ImmTAC molecule comprising a79 (SEQ ID NO: 7) and b66 (SEQ ID NO: 23) (TCR, part only; not given: anti-CD3 scFv, linker, TCR constants, part only)
TCR alpha, part: B1 TCR alpha, part
TCR beta, part: B1 TCR beta, part with N53G, W95P
B7: ImmTAC molecule comprising a28 (SEQ ID NO: 6) and b57 (SEQ ID NO: 10) (TCR, part only; not given: anti-CD3 scFv, linker, TCR constants, part only)
TCR alpha, part: B1 TCR alpha, part with L98A
TCR beta, part: B1 TCR beta, part with N53G, G98S, S100A, A101S, R104S
B8: ImmTAC molecule comprising a79 (SEQ ID NO: 7) and b71 (SEQ ID NO: 15) (TCR, part only; not given: anti-CD3 scFv, linker, TCR constants, part only)
TCR alpha, part: B1 TCR alpha, part
TCR beta, part: B1 TCR beta, part with N53G, R104Y
B9: ImmTAC molecule comprising a28 (SEQ ID NO: 6) and b74 (SEQ ID NO: 17) (TCR, part only; not given: anti-CD3 scFv, linker, TCR constants, part only)
TCR alpha, part: B1 TCR alpha, part with L98A
TCR beta, part: B1 TCR beta, part with N53G, S100A, A101S
B10: ImmTAC molecule comprising a79 (SEQ ID NO: 7) and b67 (SEQ ID NO: 13) (TCR, part only; not given: anti-CD3 scFv, linker, TCR constants, part only)
TCR alpha, part: B1 TCR alpha, part
TCR beta, part: B1 TCR beta, part with N53G, G98S
B11: ImmTAC molecule comprising a79 (SEQ ID NO: 7) and b73 (SEQ ID NO: 16) (TCR, part only; not given: anti-CD3 scFv, linker, TCR constants, part only)
TCR alpha, part: B1 TCR alpha, part
TCR beta, part: B1 TCR beta, part with N53G, S100A, R104S
B12: ImmTAC molecule comprising a79 (SEQ ID NO: 7) and b69 (SEQ ID NO: 14) (TCR, part only; not given: anti-CD3 scFv, linker, TCR constants, part only)
TCR alpha, part: B1 TCR alpha, part
TCR beta, part: B1 TCR beta, part with N53G, P102E
B13: ImmTAC molecule comprising a79 (SEQ ID NO: 7) and b75 (SEQ ID NO: 20) (TCR, part only; not given: anti-CD3 scFv, linker, TCR constants, part only)
TCR alpha, part: B1 TCR alpha, part
TCR beta, part: B1 TCR beta, part with N53G, R104S
B14: ImmTAC molecule comprising a109 (SEQ ID NO: 8) and b46 (SEQ ID NO: 11) (TCR, part only; not given: anti-CD3 scFv, linker, TCR constants, part only)
TCR alpha, part: B1 TCR alpha, part with I102Q
TCR beta, part: B1 TCR beta, part with N53G
B15: ImmTAC molecule comprising a28 (SEQ ID NO: 6) and b75 (SEQ ID NO: 20) (TCR, part only; not given: anti-CD3 scFv, linker, TCR constants, part only)
TCR alpha, part: B1 TCR alpha, part with L98A
TCR beta, part: B1 TCR beta, part with N53G, R104S
B16: ImmTAC molecule comprising a79 (SEQ ID NO: 7) and b77 (SEQ ID NO: 18) (TCR, part only; not given: anti-CD3 scFv, linker, TCR constants, part only)
TCR alpha, part: B1 TCR alpha, part
TCR beta, part: B1 TCR beta, part with N53G, S100A
B17: ImmTAC molecule comprising a79 (SEQ ID NO: 7) and b76 (SEQ ID NO: 24) (TCR, part only; not given: anti-CD3 scFv, linker, TCR constants, part only)
TCR alpha, part: B1 TCR alpha, part
TCR beta, part: B1 TCR beta, part with N53G, A101S

The first experiment deals with … (SEQ ID NO: 1)-HLA-A*02 complex presented on antigen positive cancer cells (human). The experiment in a line: cell-based or functional assay.
B1 showed an EC50 (mel624), IFN-γ ELISPOT, activation of redirected T cells of 0.0275 nM.
On the same count and under the same terms, the same measure for B2: 0.0229 nM; for B3: 0.0317 nM.
For B4, the EC50 (mel624), IFN-γ ELISPOT, activation of redirected T cells was found to be 0.0106 nM.
Same read-out and setting: the same measure for B5: 0.012 nM.
The same measure, in the same setting: the same measure for B6: 0.0167 nM; for B7: 0.0134 nM.
The same measure, in the same setting: the same measure for B8: 0.0318 nM; for B9: 0.0243 nM.
B10: the EC50 (mel624), IFN-γ ELISPOT, activation of redirected T cells came to 0.0263 nM.
On the same count and under the same terms, the same measure for B11: 0.0231 nM.
On the same count and under the same terms, the same measure for B12: 0.0398 nM; for B13: 0.0236 nM; for B14: 0.0601 nM.
On the same count and under the same terms, the same measure for B15: 0.0139 nM.
As to B16, the EC50 (mel624), IFN-γ ELISPOT, activation of redirected T cells stood at 0.0138 nM.
Take B17: the EC50 (mel624), IFN-γ ELISPOT, activation of redirected T cells was 0.0172 nM.

The next experiment has as its target … (SEQ ID NO: 1)-HLA-A*02 complex (soluble, biotinylated) (human). The experiment in a line: SPR (BIAcore) or BLI (Octet) per Example 3, biotinylated pHLA immobilised, 25 C.
With B1, the Kd amounted to 0.138 nM and the t1/2 stood at 6.38 h.
For B2, in that order: 0.079 nM and 10.8 h.
For B3, in that order: 0.261 nM and 2.8 h.
For B4, the Kd was determined as 0.0231 nM and the t1/2 came out at 28.7 h.
For B5, in that order: 0.079 nM and 8.9 h.
Molecule B6 showed a Kd of 0.089 nM and a t1/2 of 9.16 h.
Consider B7, for which the dissociation constant Kd amounted to 0.083 nM and the t1/2 was determined as 8.3 h.
For B8, in that order: 0.087 nM and 14.9 h.
In turn, B9 came in with a dissociation constant (Kd) of 0.182 nM and a t1/2 of 3.7 h.
B10 registered a Kd of 0.047 nM and a t1/2 of 12.7 h.
For B11, in that order: 0.132 nM and 4.6 h.
Molecule B12 registered a dissociation constant Kd of 0.052 nM and a t1/2 of 20.4 h.
For B13, in that order: 0.0577 nM and 16.9 h.
For B14, in that order: 0.17 nM and 7.31 h.
In turn, B15 showed a dissociation constant (Kd) of 0.214 nM and a t1/2 of 5.1 h.
For B16, in that order: 0.0779 nM and 8.6 h.
For B17, in that order: 0.0118 nM and 58.3 h.
